Measurements as given in the supplement of paper PMC10598134.
± gives the standard deviation.

Test: collision cross section of modified peptide (TIMS, N2, iRT-aligned); higher = larger / more extended gas-phase ion
Description: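 1/K0 was aligned run-wise to spiked iRT peptides and converted to CCS in N2 (Mason-Schamp). Values are the mean of 1-3 technical replicates for the most abundant feature at each charge state.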

[1] = charge state: 2, modification: GlyGly (K)
[2] = charge state: 3, modification: GlyGly (K)
[3] = charge state: 2, modification: Succinyl
[4] = charge state: 3, modification: Succinyl
[5] = charge state: 2, modification: Phospho (Y)
[6] = charge state: 2, modification: Crotonyl
[7] = charge state: 2, modification: Methyl (K)
[8] = charge state: 3, modification: Methyl (K)
[9] = charge state: 3, modification: Methyl (R)
[10] = charge state: 2, modification: Dimethyl (K)
[11] = charge state: 3, modification: Dimethyl (K)
[12] = charge state: 2, modification: Malonyl
[13] = charge state: 2, modification: Methyl (R)
[14] = charge state: 2, modification: Butyryl
[15] = charge state: 3, modification: Butyryl

VGIDTPDIDIHGPEGKLK [_VGIDTPDIDIHGPEGK(GlyGly (K))LK_]
collision cross section [1]: 467.27 Å² | collision cross section [2]: 525.5 ± 1.3 Å²

DKALPLEAEVAPVK [_DK(Succinyl)ALPLEAEVAPVK_]
collision cross section [3]: 421.55 ± 0.36 Å²

DAIHFYNKSLAEHR [_DAIHFYNK(Succinyl)SLAEHR_]
collision cross section [3]: 453.03 Å² | collision cross section [4]: 520.54 ± 0.35 Å²

GFCFITYTDEEPVKK [_GFCFITYTDEEPVK(GlyGly (K))K_]
collision cross section [1]: 487.35 ± 2.6 Å² | collision cross section [2]: 525.77 Å²

DLSTVEALQNLKNLK [_DLSTVEALQNLK(Acetyl (K))NLK_]
collision cross section (charge state: 2, modification: Acetyl (K)): 475.96 ± 3.5 Å² | collision cross section (charge state: 3, modification: Acetyl (K)): 544.02 Å²

SEGFDTYR [_SEGFDTY(Phospho (Y))R_]
collision cross section [5]: 338.3 ± 0.78 Å²

DDSFLGKLGGTLAR [_DDSFLGK(GlyGly (K))LGGTLAR_]
collision cross section [1]: 434.49 ± 0.96 Å² | collision cross section [2]: 484.35 ± 1.9 Å²

SNEEGSEEKGPEVR [_SNEEGSEEK(Crotonyl)GPEVR_]
collision cross section [6]: 406.51 ± 0.28 Å²

LLFSNTAAQKLR [_LLFSNTAAQK(Methyl (K))LR_]
collision cross section [7]: 416.21 ± 1.5 Å² | collision cross section [8]: 479.76 ± 3.4 Å²

SKLLFSNTAAQK [_SK(Methyl (K))LLFSNTAAQK_]
collision cross section [7]: 387.94 ± 0.83 Å² | collision cross section [8]: 461.44 ± 4.6 Å²

NLVTGDHIPTPQDLPQR [_NLVT(HexNAc (ST))GDHIPTPQDLPQR_]
collision cross section (charge state: 3, modification: HexNAc (ST)): 500.97 Å²

VSPASSVDSNIPSSQGYKK [_VSPASSVDSNIPSSQGYK(Propionyl)K_]
collision cross section (charge state: 3, modification: Propionyl): 557.31 Å²

VGEFSGANKEK [_VGEFSGANK(Gluratylation)EK_]
collision cross section (charge state: 2, modification: Glutarylation): 364.67 ± 0.089 Å²

ALASIDSKLNQAK [_ALASIDSK(Crotonyl)LNQAK_]
collision cross section [6]: 401.19 ± 0.9 Å²

GATVTRGVPPPPTVR [_GATVTR(Methyl (R))GVPPPPTVR_]
collision cross section [9]: 512.38 ± 1.6 Å²

LGDVYVNDAFGTAHR [_LGDVY(Nitro (Y))VNDAFGTAHR_]
collision cross section (charge state: 2, modification: Nitro (Y)): 443.1 ± 0.55 Å² | collision cross section (charge state: 3, modification: Nitro (Y)): 500.36 ± 1.2 Å²

DTGEKLTVAENEAETK [_DTGEK(hydroxyisobutyryl)LTVAENEAETK_]
collision cross section (charge state: 2, modification: hydroxyisobutyryl): 449.65 ± 0.82 Å² | collision cross section (charge state: 3, modification: hydroxyisobutyryl): 520.27 ± 2.8 Å²

LLIVSTTPYSEKDTK [_LLIVSTTPYSEK(Succinyl)DTK_]
collision cross section [3]: 458.63 ± 1.1 Å² | collision cross section [4]: 480.04 ± 2.5 Å²

ISALQGKLSK [_ISALQGK(Dimethyl (K))LSK_]
collision cross section [10]: 355.29 ± 0.29 Å² | collision cross section [11]: 425.26 ± 1.1 Å²

VETTVTSLKTK [_VETTVTSLK(Malonyl)TK_]
collision cross section [12]: 384.89 ± 0.011 Å²

LGNDFHTNKR [_LGNDFHTNK(Trimethyl (K))R_]
collision cross section (charge state: 3, modification: Trimethyl (K)): 415.91 ± 2.1 Å²

GEGGFGGRGGGR [_GEGGFGGR(Methyl (R))GGGR_]
collision cross section [13]: 345.55 ± 1 Å² | collision cross section [9]: 413.1 Å²

GTVPDDAVEALADSLGKK [_GTVPDDAVEALADSLGK(Dimethyl (K))K_]
collision cross section [10]: 485.51 ± 1.7 Å² | collision cross section [11]: 525.76 Å²

TQAYQDQKPGTSGLR [_TQAYQDQK(Butyryl)PGTSGLR_]
collision cross section [14]: 427.73 ± 0.77 Å² | collision cross section [15]: 479.17 ± 3.5 Å²

SGKFTQQDIDEAK [_SGK(Methyl (K))FTQQDIDEAK_]
collision cross section [7]: 408.84 ± 1.9 Å² | collision cross section [8]: 468.01 ± 3.6 Å²

TTEETSKPK [_TTEETSK(Formyl)PK_]
collision cross section (charge state: 2, modification: Formyl): 332.42 ± 4.9 Å²

DAIHFYNKSLAEHR [_DAIHFYNK(Butyryl)SLAEHR_]
collision cross section [14]: 452.1 Å² | collision cross section [15]: 511.38 ± 1.6 Å²

DLSTVEALQNLKNLK [_DLSTVEALQNLK(Malonyl)NLK_]
collision cross section [12]: 481.83 ± 1.5 Å²

PARGLYSR [_PAR(Methyl (R))GLYSR_]
collision cross section [13]: 338.81 ± 0.66 Å² | collision cross section [9]: 407.19 Å²

TFGKAAGPSLSHTSGGTQSK [_TFGK(Dimethyl (K))AAGPSLSHTSGGTQSK_]
collision cross section [11]: 547.87 ± 1.3 Å²

SLKLNTAEDAK [_SLK(Succinyl)LNTAEDAK_]
collision cross section [3]: 377.2 ± 0.87 Å²

IQQELQTAKK [_IQQELQTAK(Propionyl)K_]
collision cross section (charge state: 2, modification: Propionyl): 379.28 ± 0.65 Å²

YSTSGSSGLTTGK [_Y(Phospho (Y))STSGSSGLTTGK_]
collision cross section [5]: 375.26 ± 0.063 Å²

VPTTEKPTVTVNFR [_VPTTEK(Dimethyl (K))PTVTVNFR_]
collision cross section [11]: 496.28 ± 1.7 Å²
